Results taken from doi:10.1101/2023.05.22.541748.

Assays:
Ubc13 = Ubc13 (UniProt P61088); assay: NMR titration
Ubc13 C87K/K92T/K94Q = Ubc13 C87K/K92T/K94Q (UniProt P61088); assay: NMR
Chain of Ubc13 C87K/K92T/K94Q (P61088 whole entry C87K/K92T/K94Q): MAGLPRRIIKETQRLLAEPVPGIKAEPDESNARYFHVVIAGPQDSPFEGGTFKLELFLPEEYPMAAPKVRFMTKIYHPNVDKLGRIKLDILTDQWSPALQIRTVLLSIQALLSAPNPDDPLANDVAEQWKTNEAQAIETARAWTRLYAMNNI

Chain of Ubc13 (P61088 whole entry): as the sequence (P61088 whole entry C87K/K92T/K94Q) above, with K87C, T92K, Q94K counted along it

Row | Kd (Ubc13) [µM] | population of the closed state of the conjugate (Ubc13 C87K/K92T/K94Q) [%] | population of the closed state of the conjugate with RNF38 RING (Ubc13 C87K/K92T/K94Q) [%] | Substance
1 | 55 | – | – | RNF38 RING domain (residues 387-465) (domain or fragment)
2 | – | 60 | 80 | ubiquitin (wild type, Q40Ub) (from UniProt P0CG48 1-76) (natural protein)
